Target: humanized anti-human IL-10 antibody SCH 708980 (12G8) (Homo sapiens)
Experiment: competitive ECLA (IGEN): unlabeled IL-10 titrated against hIL-10-biotin for binding to humanized 12G8-1
Description: 96 well Polypropylene plates (Costar, Cat. No. 3365, Fisher Sci. Cat. No. 07200697); assay buffer of 0.1% BSA, 0.05% tween 20, PBS pH 7.5; paramagnetic beads (Streptavidin-Dynabeads, Igen, Inc., Cat. No. 110029); recombinant human IL-10 dimer (hIL-10-dimer); recombinant human IL-10-monomer (hIL-10-mono); recombinant mouse IL-10 (mIL-10); recombinant cyno IL-10 (cyno IL-10); and recombinant hIL-10Ra (hIL-10Ra): FLAG-tagged protein. Ori-Tag labeled anti-FLAG M2 monoclonal antibodies were prepared using Ori-Tag-NHS ester (Igen, Inc. Cat. No. 110034) according to manufacturer's protocol (OriTag label: IgG challenge ratio 8:1). Anti-Flag M2 monoclonal antibodies were purchased from Sigma (Cat. No. F3165). Ori-Tag labeled anti hIgG 1A2 monoclonal antibodies were prepared as above using rat anti hIgG monoclonal antibodies. Ori-Tag labeled anti rat IgG antibodies were prepared as above from polyclonal Goat anti rat IgG (H+L) antibodies (Jackson Immunoresearch Laboratories, Inc. PA, Cat. No. 112-005-143). Biotinylated recombinant human IL-10
1/3 serial dilutions in 50 microliters of the assay buffer were made in 96-well microtiter plate for all unlabeled IL-10 preparations (mIL-10, cyno IL-10, hIL-10 dimer, hIL-10 mono) starting with 3 μg/ml in the first well. […] Percent inhibition of the signal by unlabeled IL-10 preparations was calculated relative to the control samples. […]

humanized anti-human IL-10 antibody SCH 708980 (12G8) (Homo sapiens), sequence (VH, as listed by the source, chain 1 of 2): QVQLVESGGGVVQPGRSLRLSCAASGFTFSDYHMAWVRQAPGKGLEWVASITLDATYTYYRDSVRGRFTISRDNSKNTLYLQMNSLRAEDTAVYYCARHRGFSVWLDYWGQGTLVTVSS
humanized anti-human IL-10 antibody SCH 708980 (12G8) (Homo sapiens), sequence (VL, as listed by the source, chain 2 of 2): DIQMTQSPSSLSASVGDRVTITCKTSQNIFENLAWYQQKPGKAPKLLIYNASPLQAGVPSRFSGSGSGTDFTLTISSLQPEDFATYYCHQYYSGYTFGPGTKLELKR

B1: recombinant human IL-10-monomer (ligand)
chain: SPGQGTQSENSCTHFPGNLPNMLRDLRDAFSRVKTFFQMKDQLDNLLLKESLLEDFKGYLGCQALSEMIQFYLEEVMPQAENQDPDIKAHVNSLGENLKTLRLRLRRCHRFLPCENKSKAVEQVKNAFNKLQEKGIYKAMSEFDIFINYIEAYMTMKIRN
With B1 the IC50 was 5.8 nM.

From patent US20140112919A1, “INTERLEUKIN-10 ANTIBODIES” (MERCK SHARP & DOHME CORP., published 2014)
